In patent publication US20240382605A1 (IONIS PHARMACEUTICALS, published 2024):
Starred links: 1 amine or outer side, 2 acyl side, 3 side chain; linkers in the order of their positions; H or OH if unused. Positions of bridges follow the written chain, without caps; N, C: chain ends. Non-standard residues stand in square brackets, D forms with d. Primed or numbered codes have the meaning given here. *: point of attachment. azidopropyl = N-terminal modification AzPro, [N-]=[N+]=NCCC*; TATB = O=C(C[*:1])N1CN(C(=O)C[*:2])CN(C(=O)C[*:3])C1; oligonucleotide 1590463 = not defined here; Lys(N3) = [N-]=[N+]=NCCCC[C@H](N)C(=O)O; Hyp = O=C(O)[C@@H]1C[C@@H](O)CN1; azidopropyl″ = [N-]=[N+]=NCCC*; Aze = O=C(O)[C@@H]1CCN1

B1: BCY17871-1598988 (peptide)
peptide: NWNCSPDAHLGCISYCX
modifications: as printed NWNCSPDAHLGCISYC[K(N3)]: N-terminal acetyl; C-terminal amide; three Cys bound to TATB scaffold; [K(N3)] 6-azido lysine at 17 joined by SPAAC to BCN on oligonucleotide 1598988
notes: also called tracer compound
B2: 1590463-BCY17877 (peptide)
peptide: CSXDAHLGCISYCX
modifications: not fully specified; as printed CS[HyP]DAHLGCISYC[K(N3)]: N-terminal acetyl; C-terminal amide; three Cys bound to TATB scaffold; [HyP] 4-trans-hydroxy-L-proline at 3; [K(N3)] 6-azido lysine at 14 joined via BCN linker to oligonucleotide 1590463
notes: also called Compound No. 1590463 conjugated to BCY17877
B3: 1590463-BCY17869 (peptide)
peptide: {oligonucleotide 1590463-BCN linker-azidopropyl″}-CSPDAHLGCISYC-NH2
modifications: linker 1-9-13 via TATB; reading uncertain
notes: also called Compound No. 1590463 conjugated to BCY17869
B4: 1590463-BCY17878 (peptide)
peptide: {oligonucleotide 1590463-BCN linker-azidopropyl}-CS[Hyp]DAHLGCISYC-NH2
modifications: linker 1-9-13 via TATB; reading uncertain; also: printed as CS[HyP]DAHLGCISYC
notes: also called Compound No. 1590463 conjugated to BCY17878
B5: 1590463-BCY17871 (peptide)
peptide: NWNCSPDAHLGCISYCX
modifications: not fully specified; as printed NWNCSPDAHLGCISYC[K(N3)]: N-terminal acetyl; C-terminal amide; three Cys bound to TATB scaffold; [K(N3)] 6-azido lysine at 17 joined via BCN linker to oligonucleotide 1590463
notes: also called Compound No. 1590463 conjugated to BCY17871
B6: 1590463-BCY17870 (peptide)
peptide: NWNCSPDAHLGCISYCX
modifications: not fully specified; as printed NWNCSPDAHLGCISYC[K(N3)]: no N-terminal modification; C-terminal amide; three Cys bound to TATB scaffold; [K(N3)] 6-azido lysine at 17 joined via BCN linker to oligonucleotide 1590463
notes: also called Compound No. 1590463 conjugated to BCY17870
B7: 1590463-BCY17874 (peptide)
peptide: {oligonucleotide 1590463-BCN linker-azidopropyl}-CSPDAHLGCISYCEPW-NH2
modifications: linker 1-9-13 via TATB; reading uncertain
notes: also called Compound No. 1590463 conjugated to BCY17874
B8: 1590463-BCY17876 (peptide)
peptide: {oligonucleotide 1590463-BCN linker-azidopropyl}-CP[Hyp]DAYLGCISYC-NH2
modifications: linker 1-9-13 via TATB; reading uncertain; also: printed as CP[HyP]DAYLGCISYC
notes: also called Compound No. 1590463 conjugated to BCY17876
B9: 1590463-BCY17879 (peptide)
peptide: CSXDAHLGCISYCX
modifications: not fully specified; as printed CS[Aze]DAHLGCISYC[K(N3)]: N-terminal acetyl; C-terminal amide; three Cys bound to TATB scaffold; [Aze] azetidine at 3; [K(N3)] 6-azido lysine at 14 joined via BCN linker to oligonucleotide 1590463
notes: also called Compound No. 1590463 conjugated to BCY17879
B10: 1590463-BCY17868 (peptide)
peptide: CSPDAHLGCISYCX
modifications: not fully specified; as printed CSPDAHLGCISYC[K(N3)]: N-terminal acetyl; C-terminal amide; three Cys bound to TATB scaffold; [K(N3)] 6-azido lysine at 14 joined via BCN linker to oligonucleotide 1590463
notes: also called Compound No. 1590463 conjugated to BCY17868
B11: 1590463-BCY17873 (peptide)
peptide: CSPDAHLGCISYCEPWX
modifications: not fully specified; as printed CSPDAHLGCISYCEPW[K(N3)]: N-terminal acetyl; C-terminal amide; three Cys bound to TATB scaffold; [K(N3)] 6-azido lysine at 17 joined via BCN linker to oligonucleotide 1590463
notes: also called Compound No. 1590463 conjugated to BCY17873
B12: 1590463-BCY17880 (peptide)
peptide: {oligonucleotide 1590463-BCN linker-azidopropyl}-CS[Aze]DAHLGCISYC-NH2
modifications: linker 1-9-13 via TATB; reading uncertain; also: printed as CiS[Aze]DAHLGCiiISYCiii
notes: also called Compound No. 1590463 conjugated to BCY17880
B13: 1590463-BCY17899 (peptide)
peptide: NWNCPXDAYLGCXSYCX
modifications: not fully specified; as printed NWNCP[HyP]DAYLGC[tBuGly]SYC[K(N3)]: N-terminal acetyl; C-terminal amide; three Cys bound to TATB scaffold; [HyP] 4-trans-hydroxy-L-proline at 6; [tBuGly] t-butyl glycine at 13; [K(N3)] 6-azido lysine at 17 joined via BCN linker to oligonucleotide 1590463
notes: also called Compound No. 1590463 conjugated to BCY17899
B14: 1590463-BCY17894 (peptide)
peptide: CSPDAHLGCISYCEXWX
modifications: not fully specified; as printed CSPDAHLGCISYCE[Pip]W[K(N3)]: N-terminal acetyl; C-terminal amide; three Cys bound to TATB scaffold; [Pip] pipecolic acid at 15; [K(N3)] 6-azido lysine at 17 joined via BCN linker to oligonucleotide 1590463
notes: also called Compound No. 1590463 conjugated to BCY17894
B15: 1590463-BCY17901 (peptide)
peptide: CPXDAYLGCXSYCEPWX
modifications: not fully specified; as printed CP[HyP]DAYLGC[tBuGly]SYCEPW[K(N3)]: N-terminal acetyl; C-terminal amide; three Cys bound to TATB scaffold; [HyP] 4-trans-hydroxy-L-proline at 3; [tBuGly] t-butyl glycine at 10; [K(N3)] 6-azido lysine at 17 joined via BCN linker to oligonucleotide 1590463
notes: also called Compound 1590463-BCY17901; Compound No. 1666846
B16: 1590463-BCY17904 (peptide)
peptide: Ac-CS[Lys(N3)]DAHLGCISYC-NH2
modifications: linker 1-9-13 via TATB; not fully specified (residue 3); printed as CS[K(N3)]DAHLGCISYC; also: azide of K(N3) in loop clicked via BCN linker to oligonucleotide 1590463
notes: also called Compound No. 1590463 conjugated to BCY17904
B17: 1590463-BCY17892 (peptide)
peptide: CSPDAHLGCISYCEXWX
modifications: not fully specified; as printed CSPDAHLGCISYCE[Aze]W[K(N3)]: N-terminal acetyl; C-terminal amide; three Cys bound to TATB scaffold; [Aze] azetidine at 15; [K(N3)] 6-azido lysine at 17 joined via BCN linker to oligonucleotide 1590463
notes: also called Compound No. 1590463 conjugated to BCY17892

Target: T1, hCD71-Nluc fusion protein (human, UniProt P02786 1-760)
T1 construct: whole, on cells; Used as crude membrane fractions of HEK293 cells stably expressing hCD71-Nluc; also called human transferrin receptor, CD71, fused to NanoLuc; not shown: NanoLuc (ProMega) luciferase joined through its N-terminal Val
Experiment: nanoBRET saturation binding, HEK293 hCD71-Nluc membranes, single site fit

T1 sequence (P02786 other isoform, or with tags, fused parts or gaps): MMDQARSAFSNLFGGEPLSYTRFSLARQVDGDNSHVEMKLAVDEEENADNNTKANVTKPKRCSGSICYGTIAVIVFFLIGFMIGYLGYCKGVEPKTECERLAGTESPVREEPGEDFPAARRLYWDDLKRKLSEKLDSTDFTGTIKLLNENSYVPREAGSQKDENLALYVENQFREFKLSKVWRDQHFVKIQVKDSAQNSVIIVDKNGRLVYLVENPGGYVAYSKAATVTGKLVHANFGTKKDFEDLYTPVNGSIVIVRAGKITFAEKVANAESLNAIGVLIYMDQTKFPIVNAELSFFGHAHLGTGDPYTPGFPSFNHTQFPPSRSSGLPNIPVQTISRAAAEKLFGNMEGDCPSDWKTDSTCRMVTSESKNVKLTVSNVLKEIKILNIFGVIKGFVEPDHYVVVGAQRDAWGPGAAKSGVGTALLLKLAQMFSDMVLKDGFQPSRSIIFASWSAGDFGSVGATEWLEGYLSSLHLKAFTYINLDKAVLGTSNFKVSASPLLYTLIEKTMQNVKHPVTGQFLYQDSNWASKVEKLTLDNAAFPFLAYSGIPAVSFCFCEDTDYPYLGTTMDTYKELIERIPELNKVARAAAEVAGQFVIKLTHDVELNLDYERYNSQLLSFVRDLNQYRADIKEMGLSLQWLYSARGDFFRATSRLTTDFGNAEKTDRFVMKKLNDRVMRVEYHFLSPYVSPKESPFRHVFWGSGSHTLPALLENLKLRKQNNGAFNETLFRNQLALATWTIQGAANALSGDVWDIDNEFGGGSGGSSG

Binder | Kd [nM]
B1 | 57 to 58

Target: T1, hCD71-Nluc fusion protein
Experiment: nanoBRET competition, tracer BCY17871-1598988 60 nM, HEK293 hCD71-Nluc membranes
Method: (§1) The mixtures were incubated for 3 hours at room temperature to reach equilibrium. To initiate BRET, 12.4 μL of 100 μM of the Nluc substrate furimazine was added to each well, and the mixtures were incubated for 5-30 minutes. The assay plate was read on a Promega GlowMax Discover plate reader at wavelengths of 450 nm and 600 nm, and the ratio of emissions at wavelengths 450/600 were used to yield % BRET efficiency. Data was subjected to non-linear regression, then fitted to a single site binding hyperbolic function.
(§2) In order to evaluate modified oligonucleotides conjugated to CD71 bicycle ligands and RNAi compounds conjugated to CD71 bicycle ligands, the assay was modified as follows. […] Modified oligonucleotides were conjugated to the bicycle ligands through a SPAAC reaction These were then added at a range of concentrations in triplicate assays points, and the mixtures were incubated for 3 hours at room temperature. BRET was initiated with the addition of furimazine and the assay was completed as described above.

Binder | Ki [nM]
B2 | 18
B3 | 55
B4 | 74
B5 | 6
B6 | 7
B7 | 10
B8 | 29
B9 | 25
B10 | 20
B11 | 6
B12 | 102

Target: T1, hCD71-Nluc fusion protein
Experiment: as above
Remark: another data set of the same source
Method: as §1, §2

Binder | Ki [nM]
B13 | 4
B14 | 8
B15 | 1
B16 | 31
B17 | 11
B11 | 7

Target: T1, hCD71-Nluc fusion protein
Experiment: as above
Remark: another data set of the same source
Method: as §1, §2

Binder | Ki [nM]
B13 | 1
B14 | 1
B15 | 0.3
B16 | 5
B17 | 1
B11 | 1

Target: T1, hCD71-Nluc fusion protein
Experiment: as above
Remark: another data set of the same source
Method: as §1, §2

Binder | Ki [nM]
B13 | 4
B14 | 10
B15 | 1
B16 | 60
B17 | 11
B11 | 10

Target: T1, hCD71-Nluc fusion protein
Experiment: as above
Remark: another data set of the same source
Method: as §1, §2

Binder | Ki [nM]
B11 | 4

Target: T2, CD71 (Homo sapiens (Human), UniProt P02786 89-760)
T2 construct: also called transferrin receptor; TfR1
Experiment: SPR Biacore X100, conjugate duplexed to biotin-DNA on streptavidin chip, CD71 injected 6.25-100 nM, 1:1 fit
Method: The binding affinity for each of the following modified oligonucleotides conjugated to CD71 bicycle ligands was tested on a Biacore X100 surface plasmon resonance (SPR) instrument. 200 units of modified oligonucleotides conjugated to CD71 bicycle ligand were immobilized on a streptavidin chip by injecting a 20 nM solution of 5′-Biotin-labeled DNA (5′-Biotin-TEG-DNA complement to modified oligonucleotide) duplexed with modified oligonucleotides conjugated to CD71 bicycle ligand in HBS—P (10 mM HEPES, pH 7.4, 150 mM NaCl, 0.0005% Surfactant P20) running buffer. […] Kinetic and equilibrium binding analysis was performed using Biacore X100 Evaluation Software, applying 1:1 binding fit.

T2 sequence (P02786 89-760 limits assumed, form in doubt): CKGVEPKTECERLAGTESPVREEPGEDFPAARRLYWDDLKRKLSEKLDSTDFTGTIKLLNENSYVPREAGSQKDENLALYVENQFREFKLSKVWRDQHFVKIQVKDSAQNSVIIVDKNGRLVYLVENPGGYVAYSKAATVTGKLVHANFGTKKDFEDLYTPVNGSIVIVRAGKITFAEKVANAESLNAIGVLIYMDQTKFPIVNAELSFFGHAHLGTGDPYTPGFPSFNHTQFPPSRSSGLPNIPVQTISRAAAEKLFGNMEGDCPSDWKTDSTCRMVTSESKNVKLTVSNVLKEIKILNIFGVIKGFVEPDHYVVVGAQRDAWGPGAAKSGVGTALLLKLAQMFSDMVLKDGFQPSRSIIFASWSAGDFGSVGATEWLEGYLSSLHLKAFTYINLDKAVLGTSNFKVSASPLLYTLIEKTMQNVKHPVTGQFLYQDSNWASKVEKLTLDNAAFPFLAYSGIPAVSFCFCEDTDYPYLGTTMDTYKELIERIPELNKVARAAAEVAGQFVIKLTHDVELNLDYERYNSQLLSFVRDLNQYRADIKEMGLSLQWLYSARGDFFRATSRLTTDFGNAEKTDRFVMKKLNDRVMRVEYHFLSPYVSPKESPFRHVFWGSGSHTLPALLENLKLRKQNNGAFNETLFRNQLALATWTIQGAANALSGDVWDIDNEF

Binder | Kd [nM]
B3 | 14.5
B4 | 126
B5 | 2.4
B6 | 0.1
B7 | 32
B8 | 95.4
B9 | 31.2
B10 | 0.9
B11 | 12
B12 | 8.2
